The text below walks through data of the DeepSol protein solubility set.

A short description of this series: soluble on expression in E. coli; label from the status in PepcDB or PDB records.
Take “MSLSGIYEIAILGRATWQLHSLNNEGTVGNVTEPRSVRIIDPNTKKAVTTDGISGEMLKHIHTEIMWTLDDKNNLCDACKVLNPEKFNFAIKSKKATPKDVEDALKQALNTCDICDVQGFLLERPTASRKSTVEFGWALGIPEVYRDIHTHARHALGEKGKREKTEESEEEVGGVSTQMVYHRPTRSGVYAIISVFQPWRIGLNEAKQDKYTYDANDNARERRYQLALKAYPLLFARPEGAMTTTRLPHVEDFSGVIVYSTKPIPVPIISPLKSNYVDEVKTIVENIDDSLKVAEFNGIAEFAMKIGELIKNKPYKMEFEGHHHHHH”: the “soluble on expression in E. coli” value is “soluble”.

As for “MKVTLSVLKADIGSVGGHTLPSRKVLAKVEEVVREEVGRLLLDAYVFHIGDDIVLLLSHTRGVRNQEVHALAWKAFREGTEVAKAEGLYGAGQDLLKDAFTGNLHGLGPQVAEMEFTERPAEPFMVLAADKTEPGAFNLPLYLAFADPMYSSGLLLSPELRPGFRFRIMDLAQTERDSYIELDAPERLYDIATLLRDSHRFAIESIWSRKHGEQAAVVSTTRLRNIAGRYVGKDDPVAIVRTQKIFPATEEFGPVFALAPYVAGDTRGSHHMPLMPVRANTPASTFFCVPMVCGLAFSLREGRLSEPVDLFADPVWEAVRAKVVEKAQEMRRQGFYGPAMLPMEELEYTGIAERLKALEREFS”, the “soluble on expression in E. coli” value is “soluble”. For “MIGAQVDMHFTKGYPSVDLSDPWNKNVLLEVVRMAIPLMKHPNYYRINGKPAIFIWNEAIFYNRAEAYREIKEMVKRDLGVEPYIIADVLPRIMADRKVIPGTPEGEWYIRNLLLRKNDGGDKFIDAYTSWIGFYSVQGETALTPREIEMYSKLYREHVEAWSSYTNGRNKCFIPTVSPGFDRTFDKSFNQQFPIPRDPKRFAEMLKIALDSLGNCKEIRIDTWNDFYEGTFIEPSVSDGFTYLEVLEEFIKELKENLEHHHHHH” the value was “not soluble”; for “SQLTHINAAGEAHMVDVSAKAETVREARAEAFVTMRSETLAMIIDGRHHKGDVFATARIAGIQAAKRTWDLIPLCHPLMLSKVEVNLQAEPEHNRVRIETLCRLTGKTGVEMEALTAASVAALTIYDMCKAVQKDMVIGPVRLLAKSGGKSGDFKVEADD”, “not soluble”; for “MSLDRVTISHMADALGVTKSTVSRAMNGYPDISEATQLRVKRMAEKMGYQPLSHAQAIKTGRARSLGLVLQFSDHDAQRPFLAEFLAGLSAGAHTDGWTLTVAAADGHDELIETFRAILRDGKADGFILPRAMSTDPRVYLLRDAGVPFVLFGRQDKEEGCAWFDVLGEEAMCDAVLHLATLGHRRIGFINGGLQYAYARLRAAGFADGMQIAGLEMDDSLIADDAMTMESGAVAAARILDTTNPPTALVCAVDFAALGAYRAAADRGIIIGRDLSIIGYDGIPEGAFAHPPLTTFAVDNRAAGFALATLLIQRIKGEPLETLRRLVPATFVERASTGEGHHHHHH”, “not soluble”.

As for “MMSLREKLIRELRRRGPIGIDQYEIEELMGFSKSTASEALSKLEAEGIIARRQISGRSKRVWLREFIPYRDPEMIRIGCLKSTEYAGFLSAAKDYCENKGIKAVIRFYNDATSILHDLSTGTLEFGLSPIFTETLFALSRHDIVIAGPVASGGSGIFENPASCENIVATSESTSMMLLSREFRRREGDVKITIFSDPIKASDGFRAGDFRYIAIWEPYASVIGANKLYDYSDLMDTFPCCGIAVSSGRSKDADLKSIIDAYRETDVEIRSDVIDMLSKATRCSKRAVMNSLGSYNFKLKYDMQTILRYMDFIGYPASEDAIKKVFLL”, the “soluble on expression in E. coli” value was “soluble”.

For “MSLRYLSESKVAIKHSNDLNGSNLNVALLMGAGNPSSAEDALYLKEYINSPDMLAVLDKQLDFRQAFGHSGWDFFYHLSDSATREQFLNYYRNRISVSYDDKTGLLTIGTQGFSPEFAQKFNQAVLKESERFINEEGHHHHHH”, the “soluble on expression in E. coli” value is “soluble”. For “MAENRYELNKNLAQMLKGGVIMDVQNPEQARIAEAAGAAAVMALERIPADIRAVGGVSRMSDPKMIKEIQGAVSIPVMAKVRIGHFVEAQILEAIEIDYIDESEVLSPADNRFHVDKKEFQVPFVCGAKDLGEALRRIAEGASMIRTKGEPGTGDIVQAVRHMRMMSQEIRRIQNLREDELYVAAKDLQVPVELVQYVHKHGKLPVVNFAAGGIATPADAALMMQLGAEGVFVGSGIFKSGDPIKRASAIVKAVTNYRNPQILAQISEDLGEAMVGINENEIQILMAERGKLEHHHHHH” the value was “not soluble”; for “MGHHHHHHSHMQENQQITKKEQYNLNKLQKRLRRNVGEAIADFNMIEEGDRIMVCLSGGKDSYTMLEILRNLQQSAPINFSLVAVNLDQKQPGFPEHVLPEYLEKLGVEYKIVEENTYGIVKEKIPEGKTTCSLCSRLRRGILYRTATELGATKIALGHHRDDILQTLFLNMFYGGKMKGMPPKLMSDDGKHIVIRPLAYCREKDIQRFADAKAFPIIPCNLCGSQPNLQRQVIADMLRDWDKRYPGRIETMFSAMQNVVPSHLCDTNLFDFKGITHGSEVVNGGDLAFDREEIPLQPACWQPEEDENQLDELRLNVVEVK”, “soluble”. For “MRILDYDKVIERILEFIREKGNNGVVIGISGGVDSATVAYLATKALGKEKVLGLIMPYFENKDVEDAKLVAEKLGIGYKVINIKPIVDSFVENLELNLDRKGLGNIMSRTRMIMLYAHANSLGRIVLGTSNRSEFLTGYFTKWGDGASDYAPIINLYKTEVWEIAKRIGVPERIVKKKPSAGLWEGQTDEDELGISYNLLDEILWRMIDLKIGKEEIAKDLGIPLSLVERVEELIKKSEHKRRLPIGPSFEDLIVGP” the value was “soluble”. Turning to “MAHHHHHHMIKRYLKIYPSIYFTKHVYTAPEIDGSKDLLKKDYVFNQYVNKKEIFLNNKLKKGNCENEIKRIYYFKLWNAMVEHNFTLFENIIQQYLNEGYKYDEVIYSIMTHAYILNHKKKNENAYLVIEEMKRAFMHPIIIKINERMINCFLELELIFCEPSKSLWINVCRFIWESSIKLNRERRRKLKEKLNLLEPNQVLKLTKEDVKKLVKKEYEETLLSMMDTLSLDGEDPYDHILIDRKENYMKIENQKDGNFFPSNGNELTCLNNNHIYNDHINYLKGNIENDTSENVNSFMFSILNEGKNKTTEQEINYQDDYNLNNNDYMTKITNINSDNNIMMNMENEHMYETDEKDEHYESFDDAEDFDIQLLKKYYNLK”, the “soluble on expression in E. coli” value is recorded as “not soluble”. For “MGSDKIHHHHHHMEYATLGNSGVEVSEVGFGAWVVGTDWWGDRTRDDAIDMVQHALDEDVTFFDTGDVYGHGDSEEIIGEALAEHRDEVTVSTKIGYDFYNNPQAGHGELPKKVTPEWVHTAVDRSLDRLGMDHVELLMLHNANVDEVDEDVLEALDELREEGKVDAIGWALGPSIGWLAEGDAAVANEFDALQTVFNLFEQTPGQHFIDTIREQNADTSVLARVPHSSGLLNEQVTPETELGKGDHRSHRPSEWYETGWEKVEEIRFLERDGARTMGQAAIQWLLYNDEVASVTPTFRTNADIDEWAGAPDTPPLSDEEYDRVQELYRDNFGIDRDDGMDALRSSVGGADLEETGMKSAGD” the value was “not soluble”; for “MEIVRTKQFSLKPMDSEEAVLQMNLLGHSFYVYTDAETNGTNIVYSRKDGKYGLIETNLEHHHHHH”, “not soluble”. For “MNFTEMTSMEPIVTESRTPIPPVTDADRKAAFGNLQGHAIHDSAINYLVLLDQLEWQRSDNTNNFSWSVNSWIGGDTDRIWLKSEGERSNGETEAAEAQLLWGHAVGPWWDLVAGVRQDFRPASARTWAAVGFQGLALYNFESEITGFVSNGGKAALRLGGEYDVLLTNRLILQPSYEVNFYSQDDESRGRGRGLTDTELGLRLRYEIRREFAPYIGVSWNQLYGKTSDMAKREGEKDHQVVFLAGARIWFLEHHHHHH” the value was “not soluble”. For “MGSDKIHHHHHHMRNPPFIVEYELTLRCNFRCKHCYCEAGKPHLEELSFEEIKELILDMKELGTWALDIVGGEPLLHPQILDILAFGKEVGQRLMINTNGSLATKEMVQKIKKANPDVLIGVSLEGPDPETNDFVRGTGNFKRAVQGIKNFVDEGFQVTILNVINKRNWRKFEDMVKLALELGVNALYVDRFIPVGRGMIHARELDMNPEEWRVAIKHVLGVIENYKNHLTFYVEESISGKPCSAGITHASVLADGTVVPCGHFRYRKEFYMGNVREKKFSEIWHEYTPIPSPASCQQCPILNECGGGCKAYYLLREHEKDEAICFLNKERYNIK” the value was “not soluble”.

With “MHPRFQTAFAQLADNLQSALAPILADHHFPAMLTAEQVSTLKNTAGLDEDALAFALLPLAAACARTDLSHFNVGAIARGVSGNWYFGANMEFLGATMQQTVHAEQSAISHAWLRGEKGLAAVTVNYTPCGHCRQFMNELNSGLDLRIHLPGRAPHTLRDYLPDAFGPKDLEIKTLLMDEQDHGFTLTGDTLTQAAITAANKSHMPYSHSPSGVALECKDGRIFTGSYAENAAFNPTLPPLQGALNLLSLNGYDYADIQRAILAEKGDAALIQWDATAATLKALGCHNIDRVLLG”, the “soluble on expression in E. coli” value is reported as “not soluble”. Under “MGSDKIHHHHHHMLFSVVDDRSGVAYQEYHCVYGEDAETALRFLFNSMAPKADPSFPFQGRPKLIYLDNGPVAKRRVFQSVMRALGIEWQTHIPASKDGTRTTARSKGKVERPFRTVKEAHETLYHFHKPETEAQANEWLLRYLVRTYNQQTHRAEPLSRIEDWITHVPTEGIREMCSWDQFCRFAREPERRKVGPDARITTDGTAYELEPEMAGDYVVLLWGLFDDELHAEFDGERFGPHYPVSGPIPQHRYRAFKRSKADERSARIRSLADQLGLPIAALSGEDVRLEPGSADSTLPIQPFVFEPQESRIAAKLAIAEELAMPLAKLSMDDRAFIDQVLSETLATD” stands “not soluble”; under “MNEALDDIDRILVRELAADGRATLSELATRAGLSVSAVQSRVRRLESRGVVQGYSARINPEAVGHLLSAFVAITPLDPSQPDDAPARLEHIEEVESCYSVAGEESYVLLVRVASARALEDLLQRIRTTANVRTRSTIILNTFYSDRQHIP”, “soluble”; under “MRVALTIAGSDSGGGAGVQADLKVFFRFGVYGTSALTLVTAQNTLGVQRVHLLPPEVVYAQIESVAQDFPLHAAKTGALGDAAIVEAVAEAVRRFGVRPLVVDPVMVAKSGDPLLAKEAAAALKERLFPLADLVTPNRLEAEALLGRPIRTLKEAEEAAKALLALGPKAVLLKGGHLEGEEAVDLLATRGGVLRFSAPRVHTRNTHGTGCTLSAAIAALLAKGRPLAEAVAEAKAYLTRALKTAPSLGHGHGPLDHWA”, “soluble”. For “GTEETAKVVPMAVITPAINQLTDQEKAEGWALLFDGKTTKGWRGAHKDAFPDHGWMVKDGELIVQKSDGSESTNGGDIVTEGEYSAFEFSVDFKITEGANSGIKYFVTEQEKQKGSAYGLEFQLLDDAKHPDAKLYTTFPGSRTLGSLYDLKKSENIHFNGVGEWNTAVVKVFPNNHVEHWLNGVKVLEYERGSKEFRDLVKGSKYADPSYNAGGAFGEAPKGHILLQDHGDEVAFRNIKVKELK” the value was “soluble”.
